Laboratory results from paper PMC8119438.
Where a chain is given by its changes, count along the chain named. Numbers in names are those of the source.

B1: T7-RILP(L231A) (natural protein)
chain: MEPRRAAPRLPSQASSSVGAGSAAELVYHLAGALGTELQGLARRFGPDAAAGLVPLVVRALELLEKAAVGPAPDSLQVSAQQAEVELRRLREENQRLRQELGSGPQEERALLRQLKEVTDRQRDELRAHNRDLQRRSQETEALQEQLQRLLLINSELRHKLAAVQTQLRAAQDRERERQIAQDGSSQLAKEQSLEPDAATSDDPVDTQKQPGNLPEAVQCGFSREELKQIAQERNELKANVFLLKEELAYFQRELLTDHRVPGLLLEAMKVAVKKQRRKIKAKMLGTPEEAESSEDEDGSWLLLSNDKEDVPLVPESRIQNFFGLWYRGETEAPEAETSNPASSSLQKGEETPQQPHLQPVNSPPAPNS
B2: T7-RILP(E233A) (natural protein)
chain: B1 chain with A231L, E233A

Molecular target: GST-Rab12 (mouse) (UniProt P35283)
UniProt P35283, sequence (P35283 other isoform, or with tags, fused parts or gaps): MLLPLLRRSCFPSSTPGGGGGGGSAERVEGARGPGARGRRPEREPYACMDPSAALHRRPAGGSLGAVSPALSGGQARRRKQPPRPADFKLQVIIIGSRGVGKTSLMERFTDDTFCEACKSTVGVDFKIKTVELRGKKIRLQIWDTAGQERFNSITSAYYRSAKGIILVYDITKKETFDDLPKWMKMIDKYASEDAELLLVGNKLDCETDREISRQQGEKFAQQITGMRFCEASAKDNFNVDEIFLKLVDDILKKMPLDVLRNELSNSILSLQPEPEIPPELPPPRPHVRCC
Assay: pull-down; 20 μg GST, GST-Rab12 or GST-Rab12(K71R) on glutathione agarose beads, 18 h at 4 °C with 500 μg lysate of RBL cells transfected with T7-tagged RILP, RILP mutants, RILP-L1 or RILP-L2, 0.5 mM GTPγS; blot anti-T7 (Fig. 2b,c; Supplementary figure S3)

Row | Binder | percent by which the pulldown by Rab12 was impaired, against wild type RILP | percent by which the pulldown by Rab12 was inhibited, against wild type RILP
1 | B1 | 85% | –
2 | B2 | – | 90%
